Measurements reported in article doi:10.1101/2021.05.25.445634.

Molecular target: TnsC of the type V-K CRISPR-associated transposase system from S. hofmanni (ShCAST) (S. hofmanni)
Assay: cryo-EM structure

stoichiometry N: 12 subunits
Substance: TnsC of the type V-K CRISPR-associated transposase system from S. hofmanni (ShCAST) (natural protein)
